{"source": "the nanobody polyreactivity screen of Harvey et al. (2022)"}
{"assay": "yeast display, Sf9 membrane polyspecificity reagent, FACS + sequencing; frameworks hold sequencing errors", "outline": "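Using colony PCR, genes from sorted yeast display clones were amplified, then sequenced on MiSeq at 2 × 250 and filtered by CDR length. The clones had been stained with 10% biotinylated, detergent-solubilized Sf9 membrane reagent for 1 hour at 4 °C and sorted by FACS into low and high (top ~1%) gates on anti-HA and streptavidin fluorescence. Polyreactivity labels come from the gate of origin.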"}
{"sequence": "QVQLVESGGGLVQAGGSLRLSCAASGSTYSWYVMGWYRQAPGKERELVAAISYRGGRTYYADSVKGRFTISRDNAKNTVYLQMNSLKPEDTAVYYCAARGVVDAGRTNRPYDYWGQGTQVTVSS", "polyreactivity (PSR sort gate)": "low polyreactivity"}
{"sequence": "QVQLVESGGGLVQAGGSLRLSCAASGSTYVYYAMGWYRQAPGKERELVAAISSSGGSTYYADSVKGRFTISRDNAKNTVYLQMNILKPEDTAVYYCNRYSSYIPYPYNYWGQGTQVTVSS", "polyreactivity (PSR sort gate)": "high polyreactivity"}
{"sequence": "QVQLVESGGGLVQAGGSLRLSCAASGSTYWNAMGWYRQAPGKERELVAAITFRGGSTYADSVKGRFTISRDNAKNTVYLQMNSLKPEDTAVYYCAKASSHRWYNVRNRAGYDYWGQGTQVTVSS", "polyreactivity (PSR sort gate)": "high polyreactivity"}
{"sequence": "QVQLVESGGGLVQAGGSLRLSCAASGSTYYAYAMGWYRQAPGKEREFVAAISSGGGSTYYADSVKGRFTISRDNAKNTVYLQMNSLKPVDTAVYYCAAVLYYYWRGYGPRSNRYDYWGQGTQVTVSS", "polyreactivity (PSR sort gate)": "high polyreactivity"}
{"sequence": "QVQLVESGGGLVQAGGSLRLSCAASGSTYYFYPMGSYRQAPGKERELVAAISFTDTSTYYADSVQGRFTISRDNAKNTVYLQMNSLKPEDTAVYYCAARYAGGYYYWGQGTQVTVSS", "polyreactivity (PSR sort gate)": "high polyreactivity"}
{"sequence": "QVQLVESGGGLVQAGGSLRLSCAASGSTYYNALGWYRPAPGKERELVAAIRFRSGSTYYADSVKGRFTISRDNAKNTDYVQMNSLKPEDTAVYYCAADNKRSWRYAYNYWGQGTQVTVSS", "polyreactivity (PSR sort gate)": "high polyreactivity"}
{"sequence": "QVQLVESGGGLVQAGGSLRLSCAASGSYFDYYAMGCYTQAPGKERELVAAISWRGGTTYYADSVKGRFTISRDTAKKTVYLQMNSLKPEETAVYYCNADKRFRRYDYWGQGTQVTVSS", "polyreactivity (PSR sort gate)": "high polyreactivity"}
{"sequence": "QVQLVESGGGLVQAGGSLRLSCAASGTFAGNALGWYRQAPGKERELVASITTGVRTYYADSGKGRFTLSRDNAKNTVYLQMHCLKPEDTAVYYCAADRIRDLEFYYWGQGTQVTVSS", "polyreactivity (PSR sort gate)": "low polyreactivity"}
{"sequence": "QVQLVESGGGLVQAGGSLRLSCAASGTFAGNAMGWYRQAPGKERELVAAITTGGRTYYADSVKRRFTISRDNAKNTLYIQMNSLKPEDTAVYYCAADRIRDLEFDYWGQGTQVTVSS", "polyreactivity (PSR sort gate)": "low polyreactivity"}
{"sequence": "QVQLVESGGGLVQAGGSLRLSCAASGTFGYMGWYRQAPGKERELVAAITSRGGGNTYYADSVKGRFTISRDNAKNTVYLQMNSLKPEDTAVYYCAASRVGYHGQTYDYWGQGTQVTVSS", "polyreactivity (PSR sort gate)": "high polyreactivity"}
{"sequence": "QVQLVESGGGLVQAGGSLRLSCAASGTFGYYTMGWYRQAPGKERELVAAITRSGGSTYYADSVKGRFTISRDNAKNTVYLQMNSLKPEDTAVYYFATELHAWSSWNRYRAYYYWGQGTQVTVSS", "polyreactivity (PSR sort gate)": "high polyreactivity"}
{"sequence": "QVQLVESGGGLVQAGGSLRLSCAASGTFHKYAMGWYRQAPGKERELVASISRSGGSTSYADSVKGRFTISRDNAKNTVYLQMNSLKPEDTAVYYCNAYQSSGRYRNSYGYWGQGTQVTVSS", "polyreactivity (PSR sort gate)": "high polyreactivity"}
{"sequence": "QVQLVESGGGLVQAGGSLRLSCAASGTFKWYAMGWYRQAPGKERELVAVISSSGGTTYYADSVKGRFTISRDNAKNTVYLQMNSLKPEDTAVYYCNVVKRRSDWGMDYWGQGTQVTVSS", "polyreactivity (PSR sort gate)": "high polyreactivity"}
{"sequence": "QVQLVESGGGLVQAGGSLRLSCAASGTFSQYAMGWYRQAPGKERQLVAAISQGGGSTYYADSVKGRFTISRDNAKNTVYLQMNSLKPEDTAVYYCARSRSYWGIVYGRYDYWGQGTQVTVSS", "polyreactivity (PSR sort gate)": "high polyreactivity"}
{"sequence": "QVQLVESGGGLVQAGGSLRLSCAASGTFSYYAMGWYIQAPGKERELVATIRSGGRTYYADSVKGRFTISRDNAKNTVYLQMNSLKPEDTAVYYCAKTGFLGLRQYGYWGQGTRVTVSS", "polyreactivity (PSR sort gate)": "high polyreactivity"}
{"sequence": "QVQLVESGGGLVQAGGSLRLSCAASGTFVKYARGWYRQAPGKERELVATITGSGGSTYYADSVKGRFTISRDNAKNTVYLQMNSLKPEDTAVYYCAAREGYVFYKYDYWGQGTQVTVSS", "polyreactivity (PSR sort gate)": "low polyreactivity"}
{"sequence": "QVQLVESGGGLVQAGGSLRLSCAASGTFYKYSMGWYRQAPGKERELVAAISWRGGRTYADSVKGRFTISRDNAKNTVYLQMNSLKPEDTAVYYCNKRFYPEHYYWGQGTQVTVSS", "polyreactivity (PSR sort gate)": "high polyreactivity"}
{"sequence": "QVQLVESGGGLVQAGGSLRLSCAASGTFYYYAMGWYRQAPGKERDLVAGITSGGSTYYADSVKGRFTISRDNAKNTVYLQMNSLKPEDTAVYYCNTKVISRTSERRGNGFTRYDYWGQGTQVTVSS", "polyreactivity (PSR sort gate)": "low polyreactivity"}
{"sequence": "QVQLVESGGGLVQAGGSLRLSCAASGTFYYYAMGWYRQAPGKERELVAAIDYSGGSTYYADSVKGRFTISRDNAKNTVYLQMNSLKPEDTAVYYCAYVSVYDFEFWGQGTQVTVSS", "polyreactivity (PSR sort gate)": "high polyreactivity"}
{"sequence": "QVQLVESGGGLVQAGGSLRLSCAASGTIFAANAMGWYRQAPGKERELVAAISSGDGTYYADSVKGRFTISRDNAKNTVYLQMNSLKPEDTAVYYCAARFTYYSGYYAGSYGYWGQGTQVTVSS", "polyreactivity (PSR sort gate)": "high polyreactivity"}
{"sequence": "QVQLVESGGGLVQAGGSLRLSCAASGTIFAPNAMGWYRQAPGKERELVAAISRSGGRTYYADSVKGRFTISRDNAKNTVYLQMNSLKPEDTAVYYCAADYKHQRTYGSWGQGTQVTVSS", "polyreactivity (PSR sort gate)": "high polyreactivity"}
{"sequence": "QVQLVESGGGLVQAGGSLRLSCAASGTIFATYAMGWYRQAPGKERELVAAITSSDGSTNYADSVKGRFTISRDNAKNTVYLQMNSLKPEDTAVYYCAKDTPQSYFRYDYLGQGTQVTVSS", "polyreactivity (PSR sort gate)": "low polyreactivity"}
{"sequence": "QVQLVESGGGLVQAGGSLRLSCAASGTIFDDNAMGWYRHAPGKERELVAAISANDGSTYYADSVKGRFTISRDNAKNTVYLQMNSLKQEDTAVYYCAVLRVETVDIWEYDYWGQGTQVTVTS", "polyreactivity (PSR sort gate)": "low polyreactivity"}
{"sequence": "QVQLVESGGGLVQAGGSLRLSCAASGTIFFFYVMGWYRQAPGKERELVAAITYSGGSTFYADSVKGRFTISRDNAKNTVYLQMNSLKPEDTAVYYCAAVYGQWTPLDPYNHWGQGTQVTVSS", "polyreactivity (PSR sort gate)": "low polyreactivity"}
{"sequence": "QVQLVESGGGLVQAGGSLRLSCAASGTIFLVYAMGWYIQAPGKERELVAAITFSGGDTYADSVKGRFTISRDNAKNTVYLQMNSLKPEDTAVYYCNAPWPYYGSVVGQDFDYWGQGTQVTVSS", "polyreactivity (PSR sort gate)": "low polyreactivity"}
{"sequence": "QVQLVESGGGLVQAGGSLRLSCAASGTIFQQYAMGWYRQAPGKERELVAAISYSGGTTYYADSVKGRFTISRDNAKNTVYLQMNSLKPEYTSVYYCAAYYPSGSYDYYWGQGTQVTVSS", "polyreactivity (PSR sort gate)": "low polyreactivity"}
{"sequence": "QVQLVESGGGLVQAGGSLRLSCAASGTIFSRNAMGWYRQAPGKERELVAAINARGGSTYYADSVKGRFTISRDNAKNTVYLQMNSLKPEDTAVYYCAARYGVGRADYYWGQGTQVTVSS", "polyreactivity (PSR sort gate)": "high polyreactivity"}
{"sequence": "QVQLVESGGGLVQAGGSLRLSCAASGTIFTDNVMGWYRQAPGKERELVAAITYSAASTYYADSVKGRFTISRDNAKNTVYLQMNSLKPEDTAVYYCNADDPDYLVSYRYDYWGQGTQVTVSS", "polyreactivity (PSR sort gate)": "low polyreactivity"}
{"sequence": "QVQLVESGGGLVQAGGSLRLSCAASGTIPGYAMGWYRQAPGKETELVAAITWSDDSTFYADSVKGRFTISRDNAKNTVYLQMNSLKPEDTAVYYCAAEYVVSTQEFDYWGQGTQVTVSS", "polyreactivity (PSR sort gate)": "low polyreactivity"}
{"sequence": "QVQLVESGGGLVQAGGSLRLSCAASGTISASYAMGWYRQATGKERELVAAISSGGDTNYADSVKGRFTISRDNAKNTVYLQMNSLKPEDTAVYYCAADTDSDQGSEYDYWGQGTQVTVSS", "polyreactivity (PSR sort gate)": "low polyreactivity"}
{"sequence": "QVQLVESGGGLVQAGGSLRLSCAASGTTFGRNAMGWYRQAPGKERELVAAITACGGTTYYADSVKGRFTISRDNAKNTVYLQMNSLKPEDTAVYYCARAGHFSFKYDYWGQGTQVTVSS", "polyreactivity (PSR sort gate)": "low polyreactivity"}
{"sequence": "QVQLVESGGGLVQAGGSLRLSCAASGTTFPIYAMGWYRQAPGKERELVADITSTGSTDYADSVKGRFTISRDNAKNTVYLQMNSLKPEDTAVYYCAAAWKAYRRYGYWGQGTQVTVSS", "polyreactivity (PSR sort gate)": "high polyreactivity"}
{"sequence": "QVQLVESGGGLVQAGGSLRLSCAASGTTFYRNAMGWYRQAPGKERELVAAISWTGGRTYYADSVKGRFTISRDNAKNTVYLQMNSLKPEDTAVYYCNKGDSASSLDYWGQGTQVTVSS", "polyreactivity (PSR sort gate)": "high polyreactivity"}
{"sequence": "QVQLVESGGGLVQAGGSLRLSCAASGTTISANAMGWYRQAPGKERELVAAIRWSDGRTYYADSVKGRFTISRDNAKNTVYLQMNSLKPEDTAVYYCNRVLSYHRHKLGMGYWGQGTQVTVSS", "polyreactivity (PSR sort gate)": "high polyreactivity"}
{"sequence": "QVQLVESGGGLVQAGGSLRLSCAASGTTLYYYAMGWSRQAPGKERELVASITKSGASTYYADSVKGRFTISRDNAKNTVYLQMNSLKPEDTAVYYCARDPFWRGYTPRHYNYWGQGTQVTVSS", "polyreactivity (PSR sort gate)": "low polyreactivity"}
{"sequence": "QVQLVESGGGLVQAGGSLRLSCAASGVIFGRYAMGWYREAPGKERELVAAISWGGGSTRYADSVKGRFTISRDNAKNTVYLQMNSLKPEDTAVYYCAAYRYWGRTSYSYDYWGQGTQVTVSS", "polyreactivity (PSR sort gate)": "high polyreactivity"}
{"sequence": "QVQLVESGGGLVQAGGSLRLSCAASGVIFLWYAMGWYRQAPGKERELVARISNGGSTYYADSVKGRFTISRDNAKNTVYLQMISLKPEDTAVYYCNKVYYWIAYGHRSYLMDYWGQGTQVTVSS", "polyreactivity (PSR sort gate)": "high polyreactivity"}
{"sequence": "QVQLVESGGGLVQAGGSLRLSCAASGVIFNRYAMGWYRQAPGKERELVAAISSGGNTHYADSVKGRFTISRDNAKNTDYLQMNSLKPEDTAVYYCAKAFRHSTFFAPYDYWGQGTQVTVSS", "polyreactivity (PSR sort gate)": "low polyreactivity"}
{"sequence": "QVQLVESGGGLVQAGGSLRLSCAASGVIFVNNGMGWYRQAPGKERELVAAISSGGSTNYADSVKGRFTIARDNAKNTDYLQMNSLKPEDTAVYYCAVVDYLWLLQLWLSDYWGQGTQVTVSS", "polyreactivity (PSR sort gate)": "low polyreactivity"}
{"sequence": "QVQLVESGGGLVQAGGSLRLSCAASGVIFVWYAMGWYRQAPGKERELVAAISSGGSTYYADSVKGRFTISRDNAKNTVYLQMNSLKPEDTAVYYCAADLWYYAYSYDYWGQGTQVTVSS", "polyreactivity (PSR sort gate)": "high polyreactivity"}
{"sequence": "QVQLVESGGGLVQAGGSLRLSCAASGVTFAHNAMGWYRQAPGKERELVAAITRSGGSTYYADSVKGRFTISRDNAKNTVYLQMNSLKPEDTAVYYCIAGRRGSGYGYWGQGTQVTVSS", "polyreactivity (PSR sort gate)": "high polyreactivity"}
{"sequence": "QVQLVESGGGLVQAGGSLRLSCAASGVTFYAYAMAWYRQAPGKERELVAVISQSGTRTYYADSVKGRFTISRDNAKNTVYLQMNSLKPEDTAVYYCAAPKAQLQPYYYWGQGTQVTVSS", "polyreactivity (PSR sort gate)": "high polyreactivity"}
{"sequence": "QVQLVESGGGLVQAGGSLRLSCAASGYAMGWYRQAPGKERELGAAITSGGSTNYADSVKGRFTISRDNAKNTVYLQMNSVKPEDTAVYYCAAAYSLYGHRYDYWGQGTQVTVSS", "polyreactivity (PSR sort gate)": "low polyreactivity"}
